The target of one data set is T1, SynDLP (Synechocystis sp. PCC 6803, UniProt P73765, K61A).
T1 construct: gene slr0869; full length, C-terminal His tag (pET303-CT/His), E. coli Rosetta-gami 2 (DE3), calculated 93 kDa; oligomer of ~40-50 monomers in solution; model covers aa 1-793, last 19 residues unresolved
Nature of the data set: continuous regenerative coupled GTPase assay. To be noted: P-loop mutant. Format: biochemical.

Data set [1] addresses SynDLP, the dynamin-like protein of Synechocystis sp. PCC 6803 (Synechocystis sp. PCC 6803).
The target is the same in data set [2]. Nature of the data set: cryo-EM structure; about 3.0 mg/mL SynDLP in 5 mM MgCl2, 7.5 mM KCl, 20 mM HEPES pH 7.4 (no NaCl), no nucleotide, no membrane; segmented single-particle analysis, C2 symmetry; model of 8 monomers.
In data set [3] the target is SynDLP_(HPRN-AAAA) (Synechocystis sp. PCC 6803).
Data set [4] shares this target. In words: SEC; analytical SEC, Superose 6 Increase 3.2/300 in reaction buffer (20 mM HEPES pH 7.4, 150 mM NaCl, 7.5 mM KCl, 5 mM MgCl2, 0.2 mM DTT); 30 µl of 10 µM protein; 7 °C; no nucleotide, no membrane.
Substrate in data set [5]: Nc1nc2c(ncn2[C@@H]2O[C@H](COP(=O)(O)OP(=O)(O)OP(=O)(O)O)[C@@H](O)[C@H]2O)c(=O)[nH]1
In words: continuous regenerative coupled GTPase assay (PK/LDH, NADH). The conditions noted are these: 0.5 µM protein, 20 mM HEPES pH 7.4, 150 mM NaCl, 7.5 mM KCl, 5 mM MgCl2, 0.2 mM DTT, 30 °C, no liposomes. Type of data set: biochemical, Synechocystis sp. PCC 6803. From the text: continuous regenerative coupled GTPase assay (PK/LDH, NADH) on […]

Substitutions are numbered along the chain they refer to. Numbers in names are those of the source.

T1 sequence (P73765 entry or part of it K61A): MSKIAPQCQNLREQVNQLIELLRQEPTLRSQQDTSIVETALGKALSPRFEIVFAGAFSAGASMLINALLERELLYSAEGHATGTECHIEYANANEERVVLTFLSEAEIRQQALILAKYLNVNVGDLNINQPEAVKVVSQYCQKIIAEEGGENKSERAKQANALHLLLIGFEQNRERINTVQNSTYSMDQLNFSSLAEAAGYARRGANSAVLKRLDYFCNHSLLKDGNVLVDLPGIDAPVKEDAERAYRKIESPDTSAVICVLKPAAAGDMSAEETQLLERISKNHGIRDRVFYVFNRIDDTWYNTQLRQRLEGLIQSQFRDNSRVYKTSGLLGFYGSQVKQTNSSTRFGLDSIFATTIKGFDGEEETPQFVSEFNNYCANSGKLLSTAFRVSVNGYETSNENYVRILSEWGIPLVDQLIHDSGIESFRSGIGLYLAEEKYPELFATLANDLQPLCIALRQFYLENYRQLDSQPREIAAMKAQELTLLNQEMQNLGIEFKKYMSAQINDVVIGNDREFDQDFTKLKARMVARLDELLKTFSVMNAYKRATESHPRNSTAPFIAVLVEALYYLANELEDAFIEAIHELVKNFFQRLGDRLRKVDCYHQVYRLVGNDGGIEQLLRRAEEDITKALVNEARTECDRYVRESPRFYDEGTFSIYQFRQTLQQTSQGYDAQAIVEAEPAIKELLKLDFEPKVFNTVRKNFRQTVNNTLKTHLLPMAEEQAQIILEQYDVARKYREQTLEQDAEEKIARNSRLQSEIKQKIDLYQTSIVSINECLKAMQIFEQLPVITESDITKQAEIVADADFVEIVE

Take `Nc1nc2c(ncn2[C@@H]2O[C@H](COP(=O)(O)OP(=O)(O)OP(=O)(O)O)[C@@H](O)[C@H]2O)c(=O)[nH]1` [GTP]: the “continuous regenerative coupled GTPase assay” value at SynDLP was “A mutation of a conserved residue in the P-loop (K61A) considerably reduced the GTPase activity”.
For the molecule “SynDLP, the dynamin-like protein of Synechocystis sp. PCC 6803 (natural protein)”, the kcat of GTP hydrolysis (continuous, regenerative, coupled GTPase assay, 0.5 µM protein) in data set [1] is 0.743 s⁻¹. In data set [2], this molecule had a stoichiometry N of 40 to 50 monomers.
With SynDLP_(HPRN-AAAA) (natural protein), in data set [3], the kcat of GTP hydrolysis (continuous, regenerative, coupled GTPase assay, 0.5 µM protein) worked out at 0.283 s⁻¹. In addition, the stoichiometry N in data set [4] was 2.

B1: SynDLP (Synechocystis sp. PCC 6803 substr. Kazusa) (protein)
chain: MSKIAPQCQNLREQVNQLIELLRQEPTLRSQQDTSIVETALGKALSPRFEIVFAGAFSAGKSMLINALLERELLYSAEGHATGTECHIEYANANEERVVLTFLSEAEIRQQALILAKYLNVNVGDLNINQPEAVKVVSQYCQKIIAEEGGENKSERAKQANALHLLLIGFEQNRERINTVQNSTYSMDQLNFSSLAEAAGYARRGANSAVLKRLDYFCNHSLLKDGNVLVDLPGIDAPVKEDAERAYRKIESPDTSAVICVLKPAAAGDMSAEETQLLERISKNHGIRDRVFYVFNRIDDTWYNTQLRQRLEGLIQSQFRDNSRVYKTSGLLGFYGSQVKQTNSSTRFGLDSIFATTIKGFDGEEETPQFVSEFNNYCANSGKLLSTAFRVSVNGYETSNENYVRILSEWGIPLVDQLIHDSGIESFRSGIGLYLAEEKYPELFATLANDLQPLCIALRQFYLENYRQLDSQPREIAAMKAQELTLLNQEMQNLGIEFKKYMSAQINDVVIGNDREFDQDFTKLKARMVARLDELLKTFSVMNAYKRATESHPRNSTAPFIAVLVEALYYLANELEDAFIEAIHELVKNFFQRLGDRLRKVDCYHQVYRLVGNDGGIEQLLRRAEEDITKALVNEARTECDRYVRESPRFYDEGTFSIYQFRQTLQQTSQGYDAQAIVEAEPAIKELLKLDFEPKVFNTVRKNFRQTVNNTLKTHLLPMAEEQAQIILEQYDVARKYREQTLEQDAEEKIARNSRLQSEIKQKIDLYQTSIVSINECLKAMQIFEQLPVITESDITKQAEIVADADFVEIVE
notes: full length, C-terminal His tag (pET303-CT/His), E. coli Rosetta-gami 2 (DE3), calculated 93 kDa; oligomer of ~40-50 monomers in solution; model covers aa 1-793, last 19 residues unresolved
As to B1, in data set [5], the Km turned out to be 500 ± 40 µM and the kcat was determined as 0.743 ± 0.0167 s⁻¹.

B2: SynDLP (Synechocystis sp. PCC 6803 substr. Kazusa; H552A/N555A/P553A/R554A) (protein)
chain: B1 chain with H552A, P553A, R554A, N555A
notes: as for B1
In the case of B2, in data set [5], the Km was 330 ± 20 µM and the kcat came out at 0.283 ± 0.00333 s⁻¹.

B3: SynDLP (Synechocystis sp. PCC 6803 substr. Kazusa; C777A) (protein)
chain: B1 chain with C777A
notes: as for B1
B3: in data set [5], the Michaelis constant (Km) amounted to 350 ± 40 µM and the kcat was determined as 0.462 ± 0.0133 s⁻¹.

The values above are taken from paper PMC10104851, “SynDLP is a dynamin-like protein of Synechocystis sp. PCC 6803 with eukaryotic features” (Nature Communications, 2023).
